Results published in US20190225692A1 (JUNO THERAPEUTICS, published 2019).
Where a chain is given by its changes, count along the chain named.

B1: TCR 17 (codon optimized, cysteine modified version) (TCR, V domains shown)
V domain 1: AQKITQTQPGMFVQEKEAVTLDCTYDTSDPSYGLFWYKQPSSGEMIFLIYQGSYDQQNATEGRYSLNFQKARKSANLVISASQLGDSAMYFCAMREGRGDKIIFGKGTRLHILP
V domain 2: DVKVTQSSRYLVKRTGEKVFLECVQDMDHENMFWYRQDPGLGLRLIYFSYDVKMKEKGDIPEGYSVSREKKERFSLILESASTNQTSMYLCASSLWGRSNQPQHFGDGTRLSILE
B2: TCR 18 (codon optimized, cysteine modified version) (TCR, V domains shown)
V domain 1: KQEVTQIPAALSVPEGENLVLNCSFTDSAIYNLQWFRQDPGKGLTSLLLIQSSQREQTSGRLNASLDKSSGRSTLYIAASQPGDSATYLCAEGNAGGTSYGKLTFGQGTILTVHP
V domain 2: B1 V domain 2 with L95F, Q101S, Q103L, D107N, S112T, I113V, L114T
B3: TCR 21 (codon optimized, cysteine modified version) (TCR, V domains shown)
V domain 1: AQKITQTQPGMFVQEKEAVTLDCTYDTSDQSYGLFWYKQPSSGEMIFLIYQGSYDEQNATEGRYSLNFQKARKSANLVISASQLGDSAMYFCAMREGRVTGGGNKLTFGTGTQLKVEL
V domain 2: NAGVTQTPKFQVLKTGQSMTLQCAQDMNHNSMYWYRQDPGMGLRLIYYSASEGTTDKGEVPNGYNVSRLNKREFSLRLESAAPSQTSVYFCASRPWGNQNTEAFFGQGTRLTVVE
B4: TCR 23 (codon optimized, cysteine modified version) (TCR, V domains shown)
V domain 1: AQKITQTQPGMFVQEKEAVTLDCTYDTSDQSYGLFWYKQPSSGEMIFLIYQGSYDEQNATEGRYSLNFQKARKSANLVISASQLGDSAMYFCAMSPPGGSARQLTFGSGTQLTVLP
V domain 2: B1 V domain 2 with L95P, R98Q
B5: TCR 24 (codon optimized, cysteine modified version) (TCR, V domains shown)
V domain 1: AQKITQTQPGMFVQEKEAVTLDCTYDTSDQSYGLFWYKQPSSGEMIFLIYQGSYDEQNATEGRYSLNFQKARKSANLVISASQLGDSAMYFCAMREGRGDSWGKLQFGAGTQVVVTP
V domain 2: DVKVTQSSRYLVKRTGEKVFLECVQDMDHENMFWYRQDPGLGLRLIYFSYDVKMKEKGDIPEGYSVSREKKERFSLILESASTNQTSMYLCASSPFGRGSYEQYFGPGTRLTVTE

target: T1, HLA-A2/E6 (29-38) tetramer (human; HPV 16); assay: tetramer flow cytometry; transfected Jurkat-derived cells, CD8+ population
T1 construct: also called E6(29-38) peptide-MHC tetramer; E6(29-38)-loaded tetramer
Description: (§1) For transfection, the CD4+ and CD4+/CD8+ cell mixtures were transiently transfected with TCR-encoding plasmids and 48 hours after transfection, cells were assessed by flow cytometry for (1) binding of the target peptide in the context of an MHC molecule (HLA:A02:01) by staining with an E6(29-38) peptide- or an E7(11-19) peptide-MHC tetramer reagent, and/or (2) CD8+ independent binding of the target by co-staining the tetramer-labeled cells with an anti-CD8 antibody.

Point of comparison: B1, “% cells in E6 tet+/CD8+ quadrant” value 34.7%. Against it:
- B2 — higher, 50.4%
- B3 — higher, 51.6%
- B4 — higher, 43.6%
- B5 — lower, 29.1%

Point of comparison: B5, “% cells in E6 tet+/CD8- quadrant” value 0.13%. Against it:
- B1 — higher, 0.17%
- B2 — lower, 0.045%
- B3 — higher, 0.22%
- B4 — higher, 0.18%

Point of comparison: B2, “% cells in E6 tet-/CD8+ quadrant” value 47.7%. Against it:
- B1 — higher, 63.6%
- B3 — lower, 46%
- B4 — higher, 54.1%
- B5 — higher, 66.2%

Point of comparison: B4, “% cells in E6 tet-/CD8- quadrant” value 2.14%. Against it:
- B1 — lower, 1.53%
- B2 — lower, 1.86%
- B3 — higher, 2.18%
- B5 — higher, 4.51%

target: T1, HLA-A2/E6 (29-38) tetramer; assay: tetramer flow cytometry; transfected 1:1 CD4+ and CD4+/CD8+ Jurkat-derived cells;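 also: cell mixtures transiently transfected with TCR-encoding plasmids, analysed by flow cytometry 48 h later after HLA-A*02:01 E6 tetramer staining combined with anti-CD8 antibody co-staining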
Description: as §1

Point of comparison: B3, “% cells in E6 tet+/CD8+ quadrant” value 28.8%. Against it:
- B1 — higher, 36.2%
- B2 — lower, 23.3%
- B4 — higher, 52.5%
- B5 — higher, 55%

Point of comparison: B3, “% cells in E6 tet+/CD8- quadrant” value 32.7%. Against it:
- B1 — lower, 21.3%
- B2 — lower, 3.61%
- B4 — lower, 22.5%
- B5 — lower, 23.5%

Point of comparison: B4, “% cells in E6 tet-/CD8+ quadrant” value 5.19%. Against it:
- B1 — higher, 7.72%
- B2 — higher, 12%
- B3 — higher, 7.16%
- B5 — higher, 5.56%

Point of comparison: B3, “% cells in E6 tet-/CD8- quadrant” value 31.3%. Against it:
- B1 — higher, 34.8%
- B2 — higher, 61.1%
- B4 — lower, 19.7%
- B5 — lower, 16%
